The source of these data is patent US20230279124A1.

The Kd is the concentration at which binding is half-saturated. High values mean weaker binding, low ones tighter binding. What is called koff is a measure of how fast the partners let go of each other. Low values mean slow dissociation, high ones fast dissociation. A word on the kon: it is the second-order rate constant of association. The low end stands for slow association, the high end for fast association.

The assay addresses human IgE (human) (UniProt P01854). Kind of assay: BLI (Octet RED 384), GI-305 captured on AHC biosensor, IgE 1.6 to 100 nM as analyte. (In general: In BLI a coated tip is dipped into the sample, and binding shifts an interference pattern.)
UniProt P01854, sequence (P01854 other isoform, or with tags, fused parts or gaps): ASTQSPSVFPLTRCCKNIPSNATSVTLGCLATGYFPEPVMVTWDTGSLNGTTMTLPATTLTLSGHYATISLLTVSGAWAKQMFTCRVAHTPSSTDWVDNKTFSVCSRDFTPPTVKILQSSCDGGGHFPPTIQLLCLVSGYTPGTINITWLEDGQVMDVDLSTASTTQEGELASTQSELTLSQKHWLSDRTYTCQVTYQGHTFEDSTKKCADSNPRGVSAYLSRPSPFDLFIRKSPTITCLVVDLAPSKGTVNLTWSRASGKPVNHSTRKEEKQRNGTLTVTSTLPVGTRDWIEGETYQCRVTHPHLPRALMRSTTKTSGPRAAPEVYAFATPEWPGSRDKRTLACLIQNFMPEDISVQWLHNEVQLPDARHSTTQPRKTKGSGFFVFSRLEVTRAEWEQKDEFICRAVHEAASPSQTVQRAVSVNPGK

B1: GI-305 (FcεRIα ECD-Fc-anti-IL-4R scFv) fusion protein dimer (Fc fusion)
chain: VPQKPKVSLNPPWNRIFKGENVTLTCNGNNFFEVSSTKWFHNGSLSEETNSSLNIVNAKFEDSGEYKCQHQQVNESEPVYLEVFSDWLLLQASAEVVMEGQPLFLRCHGWRNWDVYKVIYYKDGEALKYWYENHNISITNATVEDSGTYYCTGKVWQLDYESEPLNITVIKAPREKYWLQGSGGGGSGGGGSGGGGSAESKYGPPCPPCPAPEAAGGPSVFLFPPKPKDQLMISRTPEVTCVVVDVSQEDPEVQFNWYVDGVEVHNAKTKPREEQFNSTYRVVSVLTVLHQDWLNGKEYKCKVSNKGLPSSIEKTISKAKGQPREPQVYTLPPSQEEMTKNQVSLTCLVKGFYPSDIAVEWESNGQPENNYKTTPPVLDSDGSFFLYSRLTVDKSRWQEGNVFSCSVLHEALHNHYTQKSLSLSLGGGGGSGGGGSGGEVQLVESGGGLEQPGGSLRLSCAGSGFTFRDYAMTWVRQAPGKCLEWVSSISGSGGNTYYADSVKGRFTISRDNSKNTLYLQMNSLRAEDTAVYYCAKDRLSITIRPRYYGLDVWGQGTTVTVSSGGGGSGGGGSGGGGSGGGGSDIVMTQSPLSLPVTPGEPASISCRSSQSLLYSIGYNYLDWYLQKSGQSPQLLIYLGSNRASGVPDRFSGSGSGTDFTLKISRVEAEDVGFYYCMQALQTPYTFGCGTKLEIK
B1 displayed a Kd of 500 pM, a koff of 9.74e-05 s⁻¹ and a kon of 201000 M⁻¹ s⁻¹.
